Source: patent publication US20160279193A1 (NORWEGIAN UNIVERSITY OF SCIENCE AND TECHNOLOGY, published 2016)
Blank lines part the entries; values can stand above or below the molecule they belong to.

Key:
[1] = target: MK2 (human) (UniProt P49137); experiment: mock co-IP with anti-TOM20 antibody from crosslinked HaCaT cell extract, Orbitrap MS
[2] = target: PACT (human) (UniProt O75569); experiment: as above
[3] = target: TAO1 (human) (UniProt Q7L7X3); experiment: as above
[4] = target: PCNA (endogenous, in human cells and their extracts) (human) (UniProt P12004); experiment: co-IP with anti-PCNA antibody from formaldehyde-crosslinked HaCaT cell extract, gel, Orbitrap MS
Sequence of PCNA (endogenous, in human cells and their extracts) (human) (P12004 whole entry): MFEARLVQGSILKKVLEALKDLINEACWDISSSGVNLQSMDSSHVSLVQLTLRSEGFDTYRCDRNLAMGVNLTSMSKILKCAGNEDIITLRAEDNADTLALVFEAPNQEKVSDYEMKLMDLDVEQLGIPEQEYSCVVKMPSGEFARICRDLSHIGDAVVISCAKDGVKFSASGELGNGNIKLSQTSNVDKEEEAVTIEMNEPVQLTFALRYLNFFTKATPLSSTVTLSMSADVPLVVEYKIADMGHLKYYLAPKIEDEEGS

[5] = target: T1, PCNA labeled with a fluorescent molecule (UniProt P12004 1-261, labeled with a fluorescent molecule (dye and site not stated)); experiment: microscale thermophoresis, fluorescently labelled PCNA, peptide titrated
T1 construct: also called proliferating cell nuclear antigen
T1 sequence (P12004 whole entry): as above
Procedure: Microscale thermophoresis (MST) was used to determine the dissociation constant for various APIM containing peptides.
PCNA was labeled with a fluorescent molecule. The concentration of PCNA was kept constant, whereas dilutions of each APIM containing peptide were prepared (1:1).

Sequence of PACT (human) (O75569 whole entry): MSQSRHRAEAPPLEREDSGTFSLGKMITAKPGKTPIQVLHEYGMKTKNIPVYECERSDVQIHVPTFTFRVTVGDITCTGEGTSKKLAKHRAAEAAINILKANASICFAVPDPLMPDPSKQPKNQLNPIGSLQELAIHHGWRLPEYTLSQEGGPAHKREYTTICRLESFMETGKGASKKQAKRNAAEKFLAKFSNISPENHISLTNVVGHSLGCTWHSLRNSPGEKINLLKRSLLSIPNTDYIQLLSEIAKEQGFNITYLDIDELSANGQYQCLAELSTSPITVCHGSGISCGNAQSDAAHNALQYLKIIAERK
Sequence of MK2 (human) (P49137 whole entry): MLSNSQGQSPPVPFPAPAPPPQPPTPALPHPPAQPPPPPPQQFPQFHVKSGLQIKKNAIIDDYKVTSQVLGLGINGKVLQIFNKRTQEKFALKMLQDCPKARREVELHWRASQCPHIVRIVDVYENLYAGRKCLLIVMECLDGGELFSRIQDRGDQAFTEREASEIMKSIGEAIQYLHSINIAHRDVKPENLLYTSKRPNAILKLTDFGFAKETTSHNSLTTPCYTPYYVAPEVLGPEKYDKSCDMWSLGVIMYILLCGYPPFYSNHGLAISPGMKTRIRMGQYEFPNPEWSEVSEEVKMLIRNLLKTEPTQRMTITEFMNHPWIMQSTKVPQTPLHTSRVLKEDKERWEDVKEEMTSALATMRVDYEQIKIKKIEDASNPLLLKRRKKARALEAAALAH
Sequence of TAO1 (human) (Q7L7X3 whole entry): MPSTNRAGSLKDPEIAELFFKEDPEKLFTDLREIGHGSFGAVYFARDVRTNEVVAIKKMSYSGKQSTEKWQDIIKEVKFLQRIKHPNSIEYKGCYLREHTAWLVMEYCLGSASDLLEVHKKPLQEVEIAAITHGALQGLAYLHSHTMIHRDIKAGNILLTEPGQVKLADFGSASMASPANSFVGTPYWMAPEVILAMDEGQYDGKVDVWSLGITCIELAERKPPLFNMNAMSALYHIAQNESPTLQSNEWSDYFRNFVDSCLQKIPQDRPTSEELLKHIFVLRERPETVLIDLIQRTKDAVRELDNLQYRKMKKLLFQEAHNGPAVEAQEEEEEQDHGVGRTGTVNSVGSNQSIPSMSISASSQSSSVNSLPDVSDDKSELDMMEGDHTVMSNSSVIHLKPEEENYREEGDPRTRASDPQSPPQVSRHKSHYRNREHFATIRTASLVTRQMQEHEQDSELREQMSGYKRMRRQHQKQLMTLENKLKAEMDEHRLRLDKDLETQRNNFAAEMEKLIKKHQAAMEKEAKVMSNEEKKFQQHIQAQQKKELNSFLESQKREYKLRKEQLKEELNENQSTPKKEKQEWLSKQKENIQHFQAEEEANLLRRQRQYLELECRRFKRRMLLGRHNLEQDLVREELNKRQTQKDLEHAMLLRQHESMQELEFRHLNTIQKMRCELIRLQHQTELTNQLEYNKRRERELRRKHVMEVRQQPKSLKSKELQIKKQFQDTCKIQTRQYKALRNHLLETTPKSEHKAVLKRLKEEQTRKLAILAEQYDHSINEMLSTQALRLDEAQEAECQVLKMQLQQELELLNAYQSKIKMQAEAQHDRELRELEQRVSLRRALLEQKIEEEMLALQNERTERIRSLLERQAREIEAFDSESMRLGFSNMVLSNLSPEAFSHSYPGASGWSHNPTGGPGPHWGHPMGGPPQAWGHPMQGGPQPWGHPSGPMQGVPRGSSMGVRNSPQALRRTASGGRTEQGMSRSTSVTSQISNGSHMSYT

Molecule: TOM20 (from UniProt Q15388 1-145)
Mascot-score (PCNA pull down) [4]: 32.5

Molecule: TAO1 (from UniProt Q7L7X3 1-1001) (enzyme)
Mascot score (PCNA pull down) [4]: 49.8
Sequest score (PCNA pull down) [4]: 11.1

B1: R11 (peptide)
peptide: RRRRRRRRRRR
notes: Cell penetrating peptide part alone, used as a control; also called R11 peptide; R11 (negative control)
binding result [5]: no binding

Now from value to molecule:

Sequest score (mock anti-TOM20 pull down) [1]: 1.79
Mascot score (mock anti-TOM20 pull down) [2]: 25.1
Sequest score (mock anti-TOM20 pull down) [2]: 1.61
Sequest score (mock anti-TOM20 pull down) [3]: 2.09
Molecule: mock antibody specific for TOM20

Mascot score (PCNA pull down) [4]: 23
Sequest score (PCNA pull down) [4]: 2.06
Molecule: PACT (from UniProt O75569 1-313)

Mascot score (PCNA pull down) [4]: 27.6
Sequest score (PCNA pull down) [4]: 6.33
Molecule: MK2 (from UniProt P49137 1-400) (enzyme)
